According to the supplement of paper PMC9112550, “Optimization of the antimicrobial peptide Bac7 by deep mutational scanning” (BMC Biology, 2022):

Test system: Escherichia coli TOP10
Test: shrunken log2 fold change of peptide-encoding DNA abundance (4.5 h post-induction vs induction); higher = less antimicrobial activity (less host growth inhibition)
Conditions: time post-induction: 4.5 h; library: site-saturation at positions 5, 18, 19, 20
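Further: peptides expressed intracellularly from a pBAD plasmid library in pooled LB shake-flask culture, induced with 0.3% L-arabinose, DNA abundance read by NGS, three biological replicates, DESeq2 with apeglm shrinkage.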

Sequence	shrunken log2 fold change
RRIRDRPPRLPRPRPRPMWTPRP	0.217
RRIRSRPPRLPRPRPRPTYCPRP	-0.112
RRIRLRPPRLPRPRPRPDMIPRP	-0.0232
RRIRPRPPRLPRPRPRPHNRPRP	-0.0456
RRIRYRPPRLPRPRPRPLLAPRP	-0.197
RRIRQRPPRLPRPRPRPAAMPRP	0.248
RRIRLRPPRLPRPRPRPFQTPRP	-0.0347
RRIRNRPPRLPRPRPRPHWLPRP	-0.101
RRIRPRPPRLPRPRPRPNDDPRP	-0.188
RRIRFRPPRLPRPRPRPPEAPRP	0.232
RRIRGRPPRLPRPRPRPPYAPRP	0.798
RRIRKRPPRLPRPRPRPHVHPRP	-0.105
RRIRDRPPRLPRPRPRPSETPRP	-0.0751
RRIRRRPPRLPRPRPRPEQDPRP	0.727
RRIRRRPPRLPRPRPRPEKDPRP	0.0399
RRIRIRPPRLPRPRPRPPMWPRP	0.00227
RRIRMRPPRLPRPRPRPCLMPRP	0.0359
RRIRKRPPRLPRPRPRPTAKPRP	0.00802
RRIRVRPPRLPRPRPRPMTWPRP	-0.124
RRIRTRPPRLPRPRPRPDVSPRP	-0.223
RRIRFRPPRLPRPRPRPNGRPRP	-0.123
RRIRLRPPRLPRPRPRPHQNPRP	-0.149

Sequence	shrunken log2 fold change
RRIRQRPPRLPRPRPRPKRSPRP	0.0578
RRIRERPPRLPRPRPRPYPSPRP	-0.967
RRIRHRPPRLPRPRPRPPPAPRP	1.07
RRIRDRPPRLPRPRPRPAQPPRP	0.278
RRIRPRPPRLPRPRPRPCSDPRP	-0.131
RRIRNRPPRLPRPRPRPKSCPRP	-0.0533
RRIRKRPPRLPRPRPRPGWWPRP	0.0245
RRIRLRPPRLPRPRPRPVVNPRP	-0.0535
RRIRDRPPRLPRPRPRPFVKPRP	-0.1
RRIRVRPPRLPRPRPRPLGSPRP	-0.115
RRIRKRPPRLPRPRPRPVWYPRP	0.0528
RRIRPRPPRLPRPRPRPGWVPRP	0.405
RRIRQRPPRLPRPRPRPKCQPRP	0.0473
RRIRHRPPRLPRPRPRPEYGPRP	-0.0913
RRIRYRPPRLPRPRPRPTKNPRP	-0.495
RRIRARPPRLPRPRPRPRLRPRP	0.514
RRIRFRPPRLPRPRPRPMMQPRP	-0.297
RRIRMRPPRLPRPRPRPIMQPRP	0.0343
RRIRPRPPRLPRPRPRPGHNPRP	-0.133
RRIRKRPPRLPRPRPRPHHFPRP	-0.0062
RRIRTRPPRLPRPRPRPNTEPRP	-0.011
RRIRERPPRLPRPRPRPEFLPRP	0.26

Sequence	shrunken log2 fold change
RRIRRRPPRLPRPRPRPYFLPRP	-0.542
RRIRSRPPRLPRPRPRPPIDPRP	-0.0487
RRIRARPPRLPRPRPRPAQSPRP	0.538
RRIRARPPRLPRPRPRPDWKPRP	-0.108
RRIRGRPPRLPRPRPRPTMFPRP	0.521
RRIRSRPPRLPRPRPRPVGNPRP	-0.0399
RRIRNRPPRLPRPRPRPKAEPRP	0.153
RRIRWRPPRLPRPRPRPKQTPRP	0.578
RRIRNRPPRLPRPRPRPFHLPRP	-0.147
RRIRPRPPRLPRPRPRPGRAPRP	0.549
RRIRGRPPRLPRPRPRPKFDPRP	0.867
RRIRCRPPRLPRPRPRPRIKPRP	0.0662
RRIRCRPPRLPRPRPRPNSLPRP	-0.0801
RRIRARPPRLPRPRPRPWIMPRP	-0.332
RRIRDRPPRLPRPRPRPWNQPRP	-0.0409
RRIRFRPPRLPRPRPRPNEKPRP	0.0854
RRIRHRPPRLPRPRPRPLDLPRP	0.441
RRIRRRPPRLPRPRPRPQNPPRP	0.214
RRIRKRPPRLPRPRPRPEGGPRP	0.543
RRIRMRPPRLPRPRPRPQNIPRP	-0.726
RRIRPRPPRLPRPRPRPSKAPRP	-0.175
RRIRERPPRLPRPRPRPNWMPRP	-0.24

Sequence	shrunken log2 fold change
RRIRGRPPRLPRPRPRPFWKPRP	0.0889
RRIRVRPPRLPRPRPRPDTRPRP	-0.129
RRIRCRPPRLPRPRPRPGRCPRP	0.436
RRIRARPPRLPRPRPRPWWSPRP	0.271
RRIRNRPPRLPRPRPRPCRHPRP	-0.149
RRIRERPPRLPRPRPRPTFEPRP	0.144
RRIRDRPPRLPRPRPRPRTTPRP	0.0893
RRIRNRPPRLPRPRPRPTINPRP	-0.515
RRIRWRPPRLPRPRPRPCERPRP	-0.0115
RRIRRRPPRLPRPRPRPFRWPRP	0.279
RRIRIRPPRLPRPRPRPFLDPRP	-0.888
RRIRKRPPRLPRPRPRPSYLPRP	-0.144
RRIRRRPPRLPRPRPRPVYNPRP	-0.154
RRIRQRPPRLPRPRPRPFGSPRP	-0.156
RRIRERPPRLPRPRPRPVPYPRP	-0.132
RRIRQRPPRLPRPRPRPKKSPRP	-0.197
RRIRPRPPRLPRPRPRPHQSPRP	0.238
RRIRVRPPRLPRPRPRPTPWPRP	0.294
RRIRPRPPRLPRPRPRPQERPRP	0.0985
RRIRYRPPRLPRPRPRPLEDPRP	-0.00931
RRIRIRPPRLPRPRPRPTYQPRP	-0.715
RRIRCRPPRLPRPRPRPARHPRP	0.061

Sequence	shrunken log2 fold change
RRIRQRPPRLPRPRPRPSTDPRP	-0.468
RRIRQRPPRLPRPRPRPRVRPRP	0.329
RRIRRRPPRLPRPRPRPRRTPRP	0.46
RRIRQRPPRLPRPRPRPALEPRP	0.275
RRIRQRPPRLPRPRPRPGPCPRP	-0.0469
RRIRWRPPRLPRPRPRPWYQPRP	-0.179
RRIRFRPPRLPRPRPRPMPSPRP	0.0917
RRIRIRPPRLPRPRPRPRNIPRP	-0.00545
RRIRMRPPRLPRPRPRPKQSPRP	0.757
RRIRLRPPRLPRPRPRPYRPPRP	-0.221
RRIRYRPPRLPRPRPRPNMAPRP	-0.00884
RRIRCRPPRLPRPRPRPFCHPRP	-0.142
RRIRWRPPRLPRPRPRPTETPRP	0.0028
RRIRQRPPRLPRPRPRPDACPRP	0.0301
RRIRHRPPRLPRPRPRPETIPRP	-0.0239
RRIRRRPPRLPRPRPRPWAKPRP	0.0786
RRIRRRPPRLPRPRPRPHVTPRP	-0.154
RRIRGRPPRLPRPRPRPHNIPRP	-0.386
RRIRPRPPRLPRPRPRPDNPPRP	-0.00669
RRIRERPPRLPRPRPRPEGHPRP	0.11
RRIRDRPPRLPRPRPRPELMPRP	1.68
